Reference: doi:10.1101/827691

Molecular target: α1-subCD3 as used in cross-linking and NMR (apparent molecular weight 27 kDa) (human) (UniProt P05023)
Assay: cross-linking

stoichiometry N (FGF2 per α1-subCD3): 1
Substance: N-terminally His6-tagged FGF2 (18 kDa isoform), wild type (from UniProt P09038-2 1-155) (natural protein)
